The results in this text go back to patent publication US8349801B2, “Peptide ligands for G-protein coupled receptors” (priority 2006, dated 2013).

For assay [1], the target named is T1, Mas receptor (Homo sapiens, UniProt P04201).
T1 construct: expressed in transfected cells; host or cells: CHO-K1 (ATCC-CCL-61), transient co-transfection
T1 sequence (P04201 1-325): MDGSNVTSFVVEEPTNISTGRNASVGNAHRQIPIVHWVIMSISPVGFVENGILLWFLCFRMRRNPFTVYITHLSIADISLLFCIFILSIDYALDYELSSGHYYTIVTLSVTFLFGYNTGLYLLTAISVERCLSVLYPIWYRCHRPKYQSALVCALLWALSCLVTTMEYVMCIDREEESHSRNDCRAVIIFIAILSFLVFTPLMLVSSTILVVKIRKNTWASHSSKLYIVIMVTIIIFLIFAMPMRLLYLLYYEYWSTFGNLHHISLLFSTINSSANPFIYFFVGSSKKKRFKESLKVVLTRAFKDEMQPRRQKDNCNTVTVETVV
Description: Calcium flux in CHO-K1 cells co-transfected with Mas receptor and Gα16. It is filed as cell-based. To be noted: for ability to induce calcium flux, P61-related peptides compared: dose response; for ability to induce calcium flux, P33 monomer, dimer and derivatives compared: 0.1, 1, 10, 100, 1000 and 10000 nM; for EC50: doses 10-3000 nM, highest response not reached. How it is done: (§1) The assay was carried out in CHO cells were transiently transfected with the GPCR of choice, by utilizing the promiscuous Gα16 to divert signaling to the Gq pathway, thus enabling readout of GPCR activation by testing for Calcium flux as described by Liu et al 2003 (Biomol Screen 8, 39-49).
(§2) All the peptides thus obtained were tested for their ability to change calcium flux in CHO—K1 cells (ATCC-CCL-61) transiently co-transfected with an expression vector containing the GPCR of choice and expression vector containing the Gα16 encoding cDNA. Expression constructs containing cDNA clones for MrgX1, MrgX2, Mas or FPRL1 were commercially obtained in one of the following expression vectors: pcDNA3.1, pCMV6, or MO2.
(§3) Transient transfections were performed using CHO—K1 cells as host cells. Cells (12 million) were plated into T75 flasks on the day preceding transfection. Cells were transfected with the appropriate GPCR expression vector and with a vector expressing Gα16 using a lipid-based reagent, MTI, according to the manufacturer's recommendation. Cells were transfected for 5 hours, then re-plated into 96-well dishes (60,000 cells per well) and grown overnight.
(§4) On the day of the experiment, cells were loaded with Fluo4-NW (Invitrogen) according to the manufacturer's recommendation. Plates were loaded into a FlexStation™ (Molecular Devices) plate reader and fluorescence was monitored. Seventeen seconds following initiation of reading, cells were stimulated with the indicated agonist/compound at final concentration of 1 μM. Each 96 well plate contained cells transfected with one GPCR expression vector and each of the examined peptides was tested in triplicate.
(§5) We defined a hit as a peptide which elicited a clear and distinct increase in intracellular calcium that is clearly visible and statistically significant upon examination of the calcium trace for at least two repeats. The criterion for statistical significance was a p-value lower than 0.001 in a t-test comparing the levels of calcium before and after peptide addition.
(§6) Based on dose response experiments, EC50 best fit values were calculated by non-linear regression of sigmoidal dose-response curves, using Prism version 4 (GraphPad Software Inc., San Diego, Calif.). The formulae for the sigmoidal dose-response curves was defined as Y=Bottom+(Top−Bottom)/(1+10^ (LogEC50−X)*HillSlope))
The ability of Peptides to change calcium flux was examined in CHO—K1 cells co-transfected with Mas receptor and Gα16.
(In general: Calcium flux is commonly read through the fluorescence of an indicator in the cells.)

Assay [2] deals with T2, FPRL1 (Homo sapiens, UniProt P25090).
T2 sequence (P25090 1-351): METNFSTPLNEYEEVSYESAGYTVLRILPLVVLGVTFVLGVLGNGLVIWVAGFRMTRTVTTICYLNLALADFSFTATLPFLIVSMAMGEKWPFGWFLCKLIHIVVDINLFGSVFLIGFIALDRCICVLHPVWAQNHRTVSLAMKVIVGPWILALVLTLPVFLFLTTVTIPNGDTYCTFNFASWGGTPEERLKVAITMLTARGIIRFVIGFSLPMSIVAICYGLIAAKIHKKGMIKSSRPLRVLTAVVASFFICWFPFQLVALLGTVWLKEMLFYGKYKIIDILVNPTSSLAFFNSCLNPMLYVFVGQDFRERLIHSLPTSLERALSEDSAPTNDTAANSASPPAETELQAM
Kind of assay: Calcium flux in CHO-K1 cells co-transfected with FPRL1 and Gα16. In kind it is cell-based. Also noted: expressed in transfected cells; host or cells: CHO-K1 (ATCC-CCL-61), transient co-transfection. Conditions: for ability to induce calcium flux, P33-derived peptides: 0.1, 1, 10, 100, 1000, 10000 nM; for calcium flux, P58 and derivatives: dose response. How it is done: as §1, §2, §3, §4, §5, §6
The ability of Peptides to change calcium flux was examined in CHO—K1 cells co-transfected with FPRL1 and Gal 6.

Assay [3] deals with aortic rings from Wistar rat. Kind of assay: Vasorelaxant activity in phenylephrine pre-contracted aortic rings. To be noted: for vasodilator effect in the presence of L-NAME: 100 μM L-NAME, NO synthase inhibitor; for vasodilator effect in the absence of functional endothelium: endothelium-denuded vessels; for Maximal values for the relaxant effect (Emax): mean±SEM. The source says:
Male Wistar rats of the age of 13-14 weeks (body weight: 250 to 300 g) were used. The rats were exposed to light-dark cycle of 12 hs (day—06:00 to 18:00; night—18:00 to 06:00) controlled by timer. Rats were killed by decapitation and exsanguination and tissues were rapidly removed.
Rings (3-4 mm) from the descending thoracic aorta, free of adipose and connective tissue, were set up in gassed (95% O2 and 5% CO2) Krebs-Henseleit solution (mmol/L): NaCl 110.8, KCl 5.9, NaHCO3 25.0, MgSO4 1.07, CaCl2 2.49, NaH2PO4 2.33 and glucose 11.51, at 37° C., under a tension of 1.0 g, for 1 hour to equilibrate. The presence of functional endothelium was assessed by the ability of Acetylcholine (1 μM) to induce more than 70% relaxation of vessels pre-contracted with phenylephrine (0.3 μM) (Lemos et al., 2005). When necessary, the endothelium was removed by rubbing the intimal surface with a wooden stick. Mechanical activity, recorded isometrically by a force transducer (Panlab, model number TR1210, Spain), was fed to an amplifier-recorder (Powerlab 4/20, ADInstruments, Inc.) and to a personal computer equipped with an analogue-to-digital converter board (AD16JR; World Precision Instruments, Inc.), using CVMS data acquisition/recording software (World Precision Instruments, Inc.).
The vasorelaxant activity of peptides —P61_S (SEQ ID NO:10), P61 (SEQ ID NO.9)-dimer (P61_D), P33_V (SEQ ID NO:7) and P33 (SEQ ID NO:6)-dimer (P33_D) were measured in vessels (N=5-8) with or without functional endothelium pre-contracted to the same tension level (approximately 1.5 g of tension) induced by submaximal concentrations of phenylephrine (0.01 μM). For comparison, the effect of Ang-(1-7) was also tested (N=4)
P61_S (SEQ ID NO:10), P61 (SEQ ID NO9)-dimer (P61_D), P33_V (SEQ ID NO:7) or P33 (SEQ ID NO:6)-dimer (P33_D) were added in increasing cumulative concentrations (0.0001 to 1 μM) once the response to phenylephrine had stabilized (FIG. 28). In order to verify the participation of endothelium-derived products in the relaxant effect of peptides, experiments were performed in the presence of 100 μM N′-Nitro-L-Arginine Methyl Ester-[L-NAME]—a nonselective inhibitor of nitric oxide synthase. In experiments performed in the presence of L-NAME, vessels were pre-contracted with 0.03 μM of phenylephrine, to achieve the same tension level as the others. L-NAME was added to the bath 20 min prior to the addition of phenylephrine.
Results are presented as mean±SEM. Two-way analysis of variance (ANOVA) with Bonferroni multiple comparison post-test was used to compare concentration response curves obtained in aortic rings. The vasodilator effect of P61_S (SEQ ID NO:10), P61 (SEQ ID N09)-dimer (P61_D), P33_V (SEQ ID NO:7), P33 (SEQ ID NO:6)-dimer (P33_D) and Ang-(1-7) were expressed as percentage decrease in maximal contraction induced by phenylephrine. All statistical analyses were considered significant when p<0.05.

Where [4] appears, read: vessels with endothelium, 0.0001 to 1 μM cumulative.

No end group written: not given here. Where only a bound is given, the exact number is not on record here.

“FAFLGYSIYLNRKRRGDPAF (listed as Homo sapiens) [P61—11S]”: in assay [1], the “ability to induce calcium flux, P61-related peptides compared” value is on record as “as potent as P61_S”. In the case of “RWSRAVLFPAAHRP (listed as Homo sapiens) [P33—8]”, in assay [1], the “ability to induce calcium flux, P33 monomer, dimer and derivatives compared” value is on record as “induced calcium flux, albeit at a somewhat lower degree compared to P33_V”. Besides, the “ability to induce calcium flux, P33-derived peptides” value in assay [2] was “failed to induce calcium flux”. For “WSRAVLFPAAHRP (listed as Homo sapiens) [P33—10]”, the “ability to induce calcium flux, P33 monomer, dimer and derivatives compared” value in assay [1] is given as “induced calcium flux, albeit at a somewhat lower degree compared to P33_V”. Further, in assay [2], the “ability to induce calcium flux, P33-derived peptides” value was “failed to induce calcium flux”. By EC50 is commonly meant the concentration that produces a half-maximal response. Regarding “FLGYSIYLNRKRRGDPAFKRRLRD [Peptide P61_S]”, the concentration giving a half-maximal response (EC50) in assay [1] is no less than 0.5 µM. On to “SMCHRWSRAVLFPAAHRP [P33_dimer] (also: dimer via cysteine; listed as Homo sapiens) [Peptide P33_dimer]”, for which, in assay [1], the “ability to induce calcium flux, P33 monomer, dimer and derivatives compared” value was “superior to the monomeric peptides”. Also, in assay [3], the “vasodilator effect in the presence of L-NAME” value is listed as “completely inhibited” and the “vasodilator effect in the absence of functional endothelium” value is on record as “completely inhibited”. For the same substance, the “Maximal values for the relaxant effect (Emax)” value (“Maximal values” below) in assay [3] (setting [4]) is 17.78±3.43%. Besides, the “ability to induce calcium flux, P33-derived peptides” value in assay [2] was “inactive”. In the case of “TIPMFVPESTS (listed as Homo sapiens) [P58—6]”, the “calcium flux, P58 and derivatives” value in assay [2] is given as “did not induce calcium flux”. For the substance “SMVHRWSRAVLFPAAHRP [Peptide P33_V, SMVHRWSRAVLFPAAHRP]”, in assay [1], the half-maximal effective concentration (EC50) was no less than 1 µM.

With “Angiotensin 1-7 [Ang-(1-7), reference compound]”, in assay [1] (dose response experiment, data not shown), the Ca response entry is reported as “did not induce Ca response”. In assay [3], the “vasodilator effect in the presence of L-NAME” value is listed as “completely inhibited” and the “vasodilator effect in the absence of functional endothelium” value is given as “abolished”. Further, the “Maximal values” value in assay [3] (setting [4]) is given as 15.64±1.91%. Also, the “Maximal values” value in assay [3] (vessels without endothelium) stood at 2.82±3.11%.

Consider “TIPMFVPESTSTLQ (listed as Homo sapiens) [P58—12]”, for which the “calcium flux, P58 and derivatives” value in assay [2] is “did not induce calcium flux”. Turning to “IYLNRKRRGDPAFKRRLRD (listed as Homo sapiens) [P61—4]”, the “ability to induce calcium flux, P61-related peptides compared” value in assay [1] is “somewhat weaker”. Take SMCHRWSRAVLFPAAHRP [Peptide P33_mono]: in assay [1], the “ability to induce calcium flux, P33 monomer, dimer and derivatives compared” value is recorded as “equally potent”. Besides, the “ability to induce calcium flux, P33-derived peptides” value in assay [2] is recorded as “similarly potent”. On to “HRWSRAVLFPAAHRP (listed as Homo sapiens) [P33—9]”, for which the “ability to induce calcium flux, P33 monomer, dimer and derivatives compared” value in assay [1] was “induced calcium flux, albeit at a somewhat lower degree compared to P33_V”. For the same substance, in assay [2], the “ability to induce calcium flux, P33-derived peptides” value is “failed to induce calcium flux”. Regarding “AVLFPAAHRP (listed as Homo sapiens) [P33—5]”, in assay [1], the “ability to induce calcium flux, P33 monomer, dimer and derivatives compared” value is “no activity”. In addition, in assay [2], the “ability to induce calcium flux, P33-derived peptides” value was “failed to induce calcium flux”. Consider “TIPMFVPESTSKLQ (listed as Homo sapiens) [P58—7]”, for which the “calcium flux, P58 and derivatives” value in assay [2] is reported as “did not induce calcium flux”. Consider “TIPMFVPESTSTLQKFTSWFM-amide (TIPMFVPESTSTLQKFTSWFM-NH2; listed as Homo sapiens) [P58—10]”, for which, in assay [2], the “calcium flux, P58 and derivatives” value is “elicited calcium flux”.
